Reference: patent publication US20180327499A1 (INSERM INSTITUT NATIONAL DE LA SANT ET DE LA RECHERCHE M …, published 2018)

Columns and labels:
[1] = molecular target: T1, recombinant human NKG2D/Fc chimera (R&D Systems) (human, UniProt P26718 78-216); experiment: ELISA on plate coated with Fc-NKG2D, dose-response, one site total binding fit
T1 construct: Bought reagent; The order Fc then NKG2D follows the printed name 'Fc-NKG2D'; also called Fc-NKG2D; NKGD2-Fc human; Fc part of the bought chimera not given
T1 sequence (looked up): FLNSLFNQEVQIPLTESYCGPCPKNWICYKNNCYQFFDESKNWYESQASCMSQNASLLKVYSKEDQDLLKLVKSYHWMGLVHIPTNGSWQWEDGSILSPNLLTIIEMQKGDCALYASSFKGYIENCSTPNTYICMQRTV

[2] = molecular target: T2, NKG2D on HEK-293T cells co-transfected with NKG2D and DAP10 (UniProt P26718 1-216, limits assumed); experiment: flow cytometry on NKG2D/DAP10-transfected HEK-293 cells, one site total binding fit
T2 construct: whole, on cells; DAP10 is co-expressed for surface expression; also called NKG2D-DAP10 co-transfected HEK293T cells
T2 sequence (looked up): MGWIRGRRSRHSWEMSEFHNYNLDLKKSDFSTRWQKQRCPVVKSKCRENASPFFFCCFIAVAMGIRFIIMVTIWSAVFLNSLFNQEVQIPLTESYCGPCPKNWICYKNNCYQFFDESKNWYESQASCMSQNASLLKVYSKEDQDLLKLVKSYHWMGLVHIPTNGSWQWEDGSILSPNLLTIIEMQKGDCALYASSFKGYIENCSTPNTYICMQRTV

B1: sdAb ET2F9 (VHH)
VHH: QVQLVQSGGGLVQPGGSLRLSCAASGFTFDDYAMSWVRQAPGKGLEWVSAISWSGRTTYYAESMKGRFTTSRDNAKNTLYLQMNSLKPEDTALYYCARGDVAIRGNLDAWGQGTQVTVSS
notes: It carries a 6His tag (detected with anti-6His / anti-his antibodies); also called ET2F09; sdAb F9
In the case of B1, the EC50 [1] is reported as 44 nM and the Kd [2] is reported as 625 nM.
